Measured values from article doi:10.1101/2023.11.29.569174v1.

Columns and labels:
Assay in all cases: purified protein
purified protein [1] = substrate: CC(C)=CCOP(=O)(O)OP(=O)(O)O; settings: pH 8.0, 22 °C, 10 mM Mg acetate, 40 mM NaCl, 0.01% Tween 20
purified protein [2] = substrate: Nc1nc2c(ncn2[C@H]2C[C@H](O)[C@@H](COP(=O)(O)OP(=O)(O)OP(=O)(O)O)O2)c(=O)[nH]1; settings: pH 8.0, 22 °C, 10 mM Mg acetate, 40 mM NaCl
purified protein [3] = substrate: CC(C)=CCC/C(C)=C/COP(=O)(O)OP(=O)(O)O; settings: pH 8.0, 22 °C, 10 mM Mg acetate, 40 mM NaCl, 0.01% Tween 20
purified protein [4] = substrate: C=C(C)CCO[P@@](=O)(O)OP(=O)(O)O; settings: pH 8.0, 22 °C, 10 mM Mg acetate, 40 mM NaCl, 0.01% Tween 20
purified protein [5] = substrate: CC(C)=CCC/C(C)=C/CC/C(C)=C/CO[P@@](=O)(O)OP(=O)(O)O; settings: pH 8.0, 22 °C, 10 mM Mg acetate, 40 mM NaCl, 0.01% Tween 20
purified protein [6] = substrate: CC(C)=CCC/C(C)=C/CC/C(C)=C/CC/C(C)=C/COP(=O)(O)OP(=O)(O)O; settings: pH 8.0, 22 °C, 10 mM Mg acetate, 40 mM NaCl, 0.01% Tween 20
purified protein [7] = substrate: C[C@@](O)(CCOP(=O)(O)OP(=O)(O)O)CC(=O)O; settings: pH 8.0, 22 °C, 10 mM Mg acetate, 40 mM NaCl, 0.01% Tween 20

B1: NUDT15 (Homo sapiens) (protein)
chain: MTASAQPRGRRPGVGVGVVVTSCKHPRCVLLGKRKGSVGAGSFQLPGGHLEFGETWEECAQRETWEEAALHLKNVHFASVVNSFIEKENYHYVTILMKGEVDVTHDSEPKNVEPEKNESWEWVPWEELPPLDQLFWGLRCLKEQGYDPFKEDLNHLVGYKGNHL
- Km (purified protein [1]): 159.3 ± 40.5 µM
- kcat (purified protein [1]): 0.94 s⁻¹
- Km (purified protein [2]): 21 µM
- kcat (purified protein [2]): 0.637 s⁻¹
- Km (purified protein [3]): 18.7 ± 0.2 µM
- kcat (purified protein [3]): 0.72 s⁻¹
- Km (purified protein [4]): 63.6 ± 19.4 µM
- kcat (purified protein [4]): 0.49 s⁻¹

B2: NUDT18 (Homo sapiens) (protein)
chain: MASEGLAGALASVLAGQGSSVHSCDSAPAGEPPAPVRLRKNVCYVVLAVFLSEQDEVLLIQEAKRECRGSWYLPAGRMEPGETIVEALQREVKEEAGLHCEPETLLSVEERGPSWVRFVFLARPTGGILKTSKEADAESLQAAWYPRTSLPTPLRAHDILHLVELAAQYRQQARHPLILPQELPCDLVCQRLVATFTSAQTVWVLVGTVGMPHLPVTACGLDPMEQRGGMKMAVLRLLQECLTLHHLVVEIKGLLGLQHLGRDHSDGICLNVLVTVAFRSPGIQDEPPKVRGENFSWWKVMEEDLQSQLLQRLQGSSVVPVNR
- Km (purified protein [5]): 18.8 ± 3.9 µM
- kcat (purified protein [5]): 0.52 s⁻¹
- Km (purified protein [6]): 17.9 ± 3.4 µM
- kcat (purified protein [6]): 0.15 s⁻¹
- Km (purified protein [1]): 9.8 ± 2.9 µM
- kcat (purified protein [1]): 0.94 s⁻¹
- Km (purified protein [7]): 26.8 ± 2.8 µM
- kcat (purified protein [7]): 0.55 s⁻¹
- Km (purified protein [3]): 3.7 ± 0.4 µM
- kcat (purified protein [3]): 0.78 s⁻¹
- Km (purified protein [4]): 12.4 ± 2.6 µM
- kcat (purified protein [4]): 0.87 s⁻¹
